Our source for the Kd values is publication PMC6126627.

What all share (assay): ELISA
Test [1] concerns the target murine sarcoma laminin (mouse) (UniProt P19137).
For test [2], the target named is human plasma fibronectin (human).
For test [3], the target named is human plasma vitronectin (human).

Regarding “full-length recombinant P4 (rP4^G22-K274), Haemophilus lipoprotein e (from UniProt P26093 22-274) (natural protein)”, the Kd (in general, the equilibrium constant for the complex coming apart) came out at 9.26 nM in test [1], 10.2 nM in test [2] and 16.5 nM in test [3].
